# Measurements: patent US12194082B2, “Compositions and methods for treatment of homocystinuria” (THE REGENTS OF THE UNIVERSITY OF COLORADO, priority 2016, dated 2025)
# Assays:
# [1] = tested on: homocysteine, cystathionine, cysteine; test: Pharmacodynamics after a single dose of PEGylated htCBS C15S in HO mice; type: in vivo
# Method: (§1) Plasma metabolites homocysteine, cystathionine and cysteine were determined by stable-isotope-dilution liquid chromatography mass spectrometry as previously described in (Allen et al., 1993, Metabolism, 42: 1448-1460). Measurements of total non-protein bound homocysteine and other aminothiols as well as of amino acids in tissue were performed as described in (Maclean et al., 2010b. Mol. Genet. Metab. 101, 153-162). Metabolites were determined by stable-isotope-dilution liquid chromatography mass spectrometry.
# For 20NHS PEG-htCBS C15S, HO mice were administered SQ a dose of 5, 10 or 15 mg/kg dose or were administered IV a dose of 10 mg/kg. For 400MA-htCBS C15S, HO mice received a single dose of 10 mg/kg either SC or IV of one of the three forms: (i) a mixture of all species, where no separation of individual forms has been attempted (mix), (ii) a homoPEGylated specie (Peak 1), and (iii) a hetero/hemiPEGylated species (Peak 2).
# Both male and female HO mice were used in this example, and each group contained 3 to 4 mice. Two groups of mice designated “A” and “B” were used for each route of administration to minimize the blood volume taken from any one mouse. For SC administration, blood was collected from group A at 0.5, 3, 24, and 72 hours post-injection and from group B at 1, 6, 48, and 96 hours post-injection. […]
# [2] = tested on: Hcy, Cys, Cth, and Met; test: Metabolite levels in plasma and tissues of KO mice at 18-19 days of age; type: in vivo
# Method: as §1
# Plasma and tissue metabolites were measured in the groups of wild-type mice (control), untreated homozygous −/− affected KO mice, and 400MA PEG-htCBS C15S-treated KO mice. The treated group was administered subcutaneous injections of 400MA PEG-htCBS C15S 3 times per week at a dose of 7.5 mg/kg from the age of 2 days. Plasma and tissues were harvested 24 hours after the last injection.
# [3] = Radiometric CBS activity assay of monkey plasma samples; type: in vivo, cynomolgus monkey
# Excerpt: Tables 12-14 below show the comparison of C15S/ME-200GS specific activity determined by LC/MS/MS using D,L-homocysteine M+4 as a substrate and by radiometric assay using L-[…] as a substrate. The enzyme's specific activity is presented in mU/μl. The “n.d.” stands for “not determined”.
# [4] = tested on: KO mice; test: Liver light and electron microscopy of treated KO mice; type: in vivo, mouse; details: 7.5 mg/kg SC 3x/week from 2 days of age, day 17-19
# Method: The PBS-injected or PEGylated htCBS conjugate, such as 20NHS PEG-htCBS C15S, treated KO mice were sacrificed on day 17-19 and liver samples were processed for histological analysis by optical microscopy. The histological assessment was carried out in a blinded fashion. Livers were removed and were fixed for 24 hours with 4% paraformaldehyde in PBS (pH 7.4). Tissue blocks for histology were trimmed, dehydrated with an ethanol series followed by acetone, acetone-xylene mixture, and xylene, then embedded in paraffin. In parallel, small tissue blocks (around 4 mm×2 mm) fixed with paraformaldehyde were rapidly frozen in petrol ether cooled with dry ice, and stored at −50° C. for detection of apolar lipids. Paraffin sections 4 μm thick were deparaffinized in xylene and after isopropyl alcohol step rehydrated with ethanol (96%, 70%, 60%). Tissue sections were stained with hematoxylin and eosin (H&E) to evaluate histopathological changes. Masson trichrome staining was performed for detection of fibrosis. Steatosis was verified using Oil Red O staining for detection of apolar lipids in fixed-frozen sections that was 10 μm thick and cut with a Leica Cryomicrotome (CM 1850). The sections were viewed and photographed with a Nikon light microscope (E800) equipped with Olympus digital camera (DP70). […]
# [5] = 7.5 mg/kg SC 3x/week from day 2, 24 hours after last injection, mean ± SEM
# [6] = 7.5 mg/kg SC 3x/week from day 2, mean ± SEM
substance,measurement,setting,value
20NHS PEG-htCBS C15S: htCBS C15S PEGylated with ME-200GS PEG (20 kDa linear NHS ester-activated PEG),single dose producing maximal efficacy response,"[1]; SC, HO mouse model",5 mg/kg
same,plasma levels of Hcy over time,[1]; single 10 mg/kg SC dose,remain decreased up to 72 hours
same,Cystathionine in plasma,[2]; [5],133.2 ± 9.1 µM
same,Cysteine in plasma,[2]; [5],211.7 ± 11.5 µM
same,Homocysteine in plasma,[2]; [5],52.8 ± 6.8 µM
same,Methionine in plasma,[2]; [5],99.2 ± 5.4 µM
same,Cystathionine in brain tissue,[2]; [6],8.5 ± 1.1 nmols/g
same,Cystathionine in kidney tissue,[2]; [6],256.0 ± 77.5 nmols/g
same,Cystathionine in liver tissue,[2]; [6],18.9 ± 1.8 nmols/g
same,Cysteine in brain tissue,[2]; [6],56.8 ± 3.0 nmols/g
same,Cysteine in kidney tissue,[2]; [6],282.8 ± 17.1 nmols/g
same,Cysteine in liver tissue,[2]; [6],205.2 ± 27.4 nmols/g
same,Homocysteine in brain tissue,[2]; [6],1.1 ± 0.1 nmols/g
same,Homocysteine in kidney tissue,[2]; [6],6.76 ± 4.42 nmols/g
same,Homocysteine in liver tissue,[2]; [6],22.4 ± 3.4 nmols/g
same,Methionine in brain tissue,[2]; [6],68.6 ± 4.7 nmols/g
same,Methionine in kidney tissue,[2]; [6],53.3 ± 2.9 nmols/g
same,Methionine in liver tissue,[2]; [6],25.5 ± 3.4 nmols/g
same,"specific activity in plasma, Radiometric assay","[3]; single IV 2 mg/kg, 0.083 h",95.741 mU/μl
same,"specific activity in plasma, Radiometric assay","[3]; single IV 2 mg/kg, 0.167 h",90.049 mU/μl
same,"specific activity in plasma, Radiometric assay","[3]; single IV 2 mg/kg, 0.25 h",88.891 mU/μl
same,"specific activity in plasma, Radiometric assay","[3]; single IV 2 mg/kg, 0.5 h",85.342 mU/μl
same,"specific activity in plasma, Radiometric assay","[3]; single IV 2 mg/kg, 1 h",80.992 mU/μl
same,"specific activity in plasma, Radiometric assay","[3]; single IV 2 mg/kg, 2 h",78.984 mU/μl
same,"specific activity in plasma, Radiometric assay","[3]; single IV 2 mg/kg, 4 h",77.809 mU/μl
same,"specific activity in plasma, Radiometric assay","[3]; single IV 2 mg/kg, 8 h",70.357 mU/μl
same,"specific activity in plasma, Radiometric assay","[3]; single IV 2 mg/kg, 24 h",55.865 mU/μl
same,"specific activity in plasma, Radiometric assay","[3]; single IV 2 mg/kg, 72 h",31.601 mU/μl
same,"specific activity in plasma, Radiometric assay","[3]; single IV 2 mg/kg, 120 h",18.908 mU/μl
same,"specific activity in plasma, Radiometric assay","[3]; single IV 2 mg/kg, 192 h",9.182 mU/μl
same,"specific activity in plasma, Radiometric assay","[3]; single SC 2 mg/kg, 1 h",2.842 mU/μl
same,"specific activity in plasma, Radiometric assay","[3]; single SC 2 mg/kg, 2 h",5.801 mU/μl
same,"specific activity in plasma, Radiometric assay","[3]; single SC 2 mg/kg, 4 h",11.207 mU/μl
same,"specific activity in plasma, Radiometric assay","[3]; single SC 2 mg/kg, 8 h",22.164 mU/μl
same,"specific activity in plasma, Radiometric assay","[3]; single SC 2 mg/kg, 24 h",40.293 mU/μl
same,"specific activity in plasma, Radiometric assay","[3]; single SC 2 mg/kg, 48 h",36.658 mU/μl
same,"specific activity in plasma, Radiometric assay","[3]; single SC 2 mg/kg, 72 h",30.670 mU/μl
same,"specific activity in plasma, Radiometric assay","[3]; single SC 2 mg/kg, 96 h",23.536 mU/μl
same,"specific activity in plasma, Radiometric assay","[3]; single SC 2 mg/kg, 120 h",18.608 mU/μl
same,"specific activity in plasma, Radiometric assay","[3]; single SC 2 mg/kg, 192 h",9.496 mU/μl
same,"specific activity in plasma, Radiometric assay","[3]; single SC 2 mg/kg, 240 h",5.963 mU/μl
same,"specific activity in plasma, Radiometric assay","[3]; single SC 2 mg/kg, 336 h",2.441 mU/μl
same,"specific activity in plasma, Radiometric assay","[3]; single SC 6 mg/kg, 1 h",3.739 mU/μl
same,"specific activity in plasma, Radiometric assay","[3]; single SC 6 mg/kg, 2 h",9.180 mU/μl
same,"specific activity in plasma, Radiometric assay","[3]; single SC 6 mg/kg, 4 h",22.263 mU/μl
same,"specific activity in plasma, Radiometric assay","[3]; single SC 6 mg/kg, 8 h",50.194 mU/μl
same,"specific activity in plasma, Radiometric assay","[3]; single SC 6 mg/kg, 24 h",111.081 mU/μl
same,"specific activity in plasma, Radiometric assay","[3]; single SC 6 mg/kg, 48 h",109.292 mU/μl
same,"specific activity in plasma, Radiometric assay","[3]; single SC 6 mg/kg, 72 h",95.722 mU/μl
same,"specific activity in plasma, Radiometric assay","[3]; single SC 6 mg/kg, 96 h",73.072 mU/μl
same,"specific activity in plasma, Radiometric assay","[3]; single SC 6 mg/kg, 120 h",56.427 mU/μl
same,"specific activity in plasma, Radiometric assay","[3]; single SC 6 mg/kg, 192 h",31.513 mU/μl
same,"specific activity in plasma, Radiometric assay","[3]; single SC 6 mg/kg, 240 h",19.203 mU/μl
same,"specific activity in plasma, Radiometric assay","[3]; single SC 6 mg/kg, 336 h",5.807 mU/μl
same,"liver parenchyma, light microscopy",[4],regular liver architecture and minimal anizokaryosis
